# Test results taken from IntAct's records for PubMed 20956942.
# B1: Thyroid hormone receptor beta (Homo sapiens), P10828-1 (parent)
# chain: MTPNSMTENGLTAWDKPKHCPDREHDWKLVGMSEACLHRKSHSERRSTLKNEQSSPHLIQTTWTSSIFHLDHDDVNDQSVSSAQTFQTEEKKCKGYIPSYLDKDELCVVCGDKATGYHYRCITCEGCKGFFRRTIQKNLHPSYSCKYEGKCVIDKVTRNQCQECRFKKCIYVGMATDLVLDDSKRLAKRKLIEENREKRRREELQKSIGHKPEPTDEEWELIKTVTEAHVATNAQGSHWKQKRKFLPEDIGQAPIVNAPEGGKVDLEAFSHFTKIITPAITRVVDFAKKLPMFCELPCEDQIILLKGCCMEIMSLRAAVRYDPESETLTLNGEMAVTRGQLKNGGLGVVSDAIFDLGMSLSSFNLDDTEVALLQAVLLMSSDRPGLACVERIEKYQDSFLLAFEHYINYRKHHVTHFWPKLLMKVTDLRMIGACHASRFLHMKVECPTELFPPLFLEVFED
# Variants of: B1
# Conditions: with ncoa3_human NCOA3, Q9Y6Q9
row,Variant,effect of a mutation on the interaction
1,MTPNSMTENGLTAWDKPKHCPDREHDWKLVGMSEACLHRKSHSERRSTLKNEQSSPHLIQTTWTSSIFHLDHDDVNDQSVSSAQTFQTEEKKCKGYIPSYLDKDELCVVCGDKATGYHYRCITCEGCKGFFRRTIQKNLHPSYSCKYEGKCVIDKVTRNQCQECRFKKCIYVGMATDLVLDDSKRLAKRKLIEENREKRRREELQKSIGHKPEPTDEEWELIKTVTEAHVATNAQGSHWKQKRKFLPEDIGQAPIVNAPEGGKVDLEAFSHFTKIITPAITRVVDFAIKLPMFCELPCEDQIILLKGCCMEIMSLRAAVRYDPESETLTLNGEMAVTRGQLKNGGLGVVSDAIFDLGMSLSSFNLDDTEVALLQAVLLMSSDRPGLACVERIEKYQDSFLLAFEHYINYRKHHVTHFWPKLLMKVTDLRMIGACHASRFLHMKVECPTELFPPLFLEVFED [K288I],disrupting interaction
2,MTPNSMTENGLTAWDKPKHCPDREHDWKLVGMSEACLHRKSHSERRSTLKNEQSSPHLIQTTWTSSIFHLDHDDVNDQSVSSAQTFQTEEKKCKGYIPSYLDKDELCVVCGDKATGYHYRCITCEGCKGFFRRTIQKNLHPSYSCKYEGKCVIDKVTRNQCQECRFKKCIYVGMATDLVLDDSKRLAKRKLIEENREKRRREELQKSIGHKPERTDEEWELIKTVTEAHVATNAQGSHWKQKRKFLPEDIGQAPIVNAPEGGKVDLEAFSHFTKIITPAITRVVDFAKKLPMFCELPCEDQIILLKGCCMEIMSLRAAVRYDPESETLTLNGEMAVTRGQLKNGGLGVVSDAIFDLGMSLSSFNLDDTEVALLQAVLLMSSDRPGLACVERIEKYQDSFLLAFEHYINYRKHHVTHFWPKLLMKVTDLRMIGACHASRFLHMKVECPTELFPPLFLEVFED [P214R],increasing interaction
3,MTPNSMTENGLTAWDKPKHCPDREHDWKLVGMSEACLHRKSHSERRSTLKNEQSSPHLIQTTWTSSIFHLDHDDVNDQSVSSAQTFQTEEKKCKGYIPSYLDKDELCVVCGDKATGYHYRCITCEGCKGFFRRTIQKNLHPSYSCKYEGKCVIDKVTRNQCQECRFKKCIYVGMATDLVLDDSKRLAKRKLIEENREKRRREELQKSIGHKPEPTDEEWELIKTVTEAHVATNAQGSHWKQKWKFLPEDIGQAPIVNAPEGGKVDLEAFSHFTKIITPAITRVVDFAKKLPMFCELPCEDQIILLKGCCMEIMSLRAAVRYDPESETLTLNGEMAVTRGQLKNGGLGVVSDAIFDLGMSLSSFNLDDTEVALLQAVLLMSSDRPGLACVERIEKYQDSFLLAFEHYINYRKHHVTHFWPKLLMKVTDLRMIGACHASRFLHMKVECPTELFPPLFLEVFED [R243W],increasing interaction
4,MTPNSMTENGLTAWDKPKHCPDREHDWKLVGMSEACLHRKSHSERRSTLKNEQSSPHLIQTTWTSSIFHLDHDDVNDQSVSSAQTFQTEEKKCKGYIPSYLDKDELCVVCGDKATGYHYRCITCEGCKGFFRRTIQKNLHPSYSCKYEGKCVIDKVTRNQCQECRFKKCIYVGMATDLVLDDSKRLAKRKLIEENREKRRREELQKSIGHKPEPTDEEWELIKTVTEAHVATNAQGSHWKQKRKFLPEDIGQAPIVNAPEGGKVDLEAFSHFTKIITPAITRVVDFAKKLPMFCELPCEDQIILLKGCCMEIMSLRAAVRYDPESETLTLNGEMAVTRGQLKNGGLGVVSDAIFDLGMSLSSFNLDDTEVALLQAVLLMSSDRPGLACVERIEKYQDSFLLAFEHYINYRKHHVTHFWPKLLMKVTDLRMIGACHASRFLHMKVECPTELFPPLFLQVFED [E457Q],decreasing interaction

# Variants of: B1
# Conditions: with ncor2_human NCOR2, Q9Y618
row,Variant,effect of a mutation on the interaction
1,MTPNSMTENGLTAWDKPKHCPDREHDWKLVGMSEACLHRKSHSERRSTLKNEQSSPHLIQTTWTSSIFHLDHDDVNDQSVSSAQTFQTEEKKCKGYIPSYLDKDELCVVCGDKATGYHYRCITCEGCKGFFRRTIQKNLHPSYSCKYEGKCVIDKVTRNQCQECRFKKCIYVGMATDLVLDDSKRLAKRKLIEENREKRRREELQKSIGHKPERTDEEWELIKTVTEAHVATNAQGSHWKQKRKFLPEDIGQAPIVNAPEGGKVDLEAFSHFTKIITPAITRVVDFAKKLPMFCELPCEDQIILLKGCCMEIMSLRAAVRYDPESETLTLNGEMAVTRGQLKNGGLGVVSDAIFDLGMSLSSFNLDDTEVALLQAVLLMSSDRPGLACVERIEKYQDSFLLAFEHYINYRKHHVTHFWPKLLMKVTDLRMIGACHASRFLHMKVECPTELFPPLFLEVFED [P214R],decreasing interaction
2,MTPNSMTENGLTAWDKPKHCPDREHDWKLVGMSEACLHRKSHSERRSTLKNEQSSPHLIQTTWTSSIFHLDHDDVNDQSVSSAQTFQTEEKKCKGYIPSYLDKDELCVVCGDKATGYHYRCITCEGCKGFFRRTIQKNLHPSYSCKYEGKCVIDKVTRNQCQECRFKKCIYVGMATDLVLDDSKRLAKRKLIEENREKRRREELQKSIGHKPEPTDEEWELIKTVTEGGVAANAQGSHWKQKRKFLPEDIGQAPIVNAPEGGKVDLEAFSHFTKIITPAITRVVDFAKKLPMFCELPCEDQIILLKGCCMEIMSLRAAVRYDPESETLTLNGEMAVTRGQLKNGGLGVVSDAIFDLGMSLSSFNLDDTEVALLQAVLLMSSDRPGLACVERIEKYQDSFLLAFEHYINYRKHHVTHFWPKLLMKVTDLRMIGACHASRFLHMKVECPTELFPPLFLEVFED [A228G;H229G;T232A],decreasing interaction
3,MTPNSMTENGLTAWDKPKHCPDREHDWKLVGMSEACLHRKSHSERRSTLKNEQSSPHLIQTTWTSSIFHLDHDDVNDQSVSSAQTFQTEEKKCKGYIPSYLDKDELCVVCGDKATGYHYRCITCEGCKGFFRRTIQKNLHPSYSCKYEGKCVIDKVTRNQCQECRFKKCIYVGMATDLVLDDSKRLAKRKLIEENREKRRREELQKSIGHKPEPTDEEWELIKTVTEAHVATNAQGSHWKQKWKFLPEDIGQAPIVNAPEGGKVDLEAFSHFTKIITPAITRVVDFAKKLPMFCELPCEDQIILLKGCCMEIMSLRAAVRYDPESETLTLNGEMAVTRGQLKNGGLGVVSDAIFDLGMSLSSFNLDDTEVALLQAVLLMSSDRPGLACVERIEKYQDSFLLAFEHYINYRKHHVTHFWPKLLMKVTDLRMIGACHASRFLHMKVECPTELFPPLFLEVFED [R243W],increasing interaction
